{
  "source": "patent US9969812B2",
  "about": "“Anti human Notch4 antibody” (Eisai R&D Management Co., Ltd., priority 2015, dated 2018)",
  "molecular_target": "T1, Human Notch4-NRR Fusion Protein (Homo sapiens, UniProt Q99466)",
  "T1 construct": "Human Notch4-NRR domain Fc fusion proteins were expressed with a CHO cell line; Fc; made in house; host or cells: CHO cell line (antigen captured from culture supernatant)",
  "T1 sequence (Q99466 1046-1445 limits assumed)": "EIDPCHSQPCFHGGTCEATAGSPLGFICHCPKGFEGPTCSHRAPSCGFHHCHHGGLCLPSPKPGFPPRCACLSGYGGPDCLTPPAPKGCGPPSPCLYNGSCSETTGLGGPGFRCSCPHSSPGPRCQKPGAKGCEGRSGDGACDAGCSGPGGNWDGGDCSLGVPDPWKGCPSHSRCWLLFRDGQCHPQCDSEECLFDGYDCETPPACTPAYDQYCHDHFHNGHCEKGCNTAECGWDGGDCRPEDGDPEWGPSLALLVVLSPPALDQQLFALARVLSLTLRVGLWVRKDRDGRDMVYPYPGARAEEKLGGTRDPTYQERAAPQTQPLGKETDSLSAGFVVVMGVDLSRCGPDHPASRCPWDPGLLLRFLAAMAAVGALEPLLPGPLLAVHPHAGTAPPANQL",
  "test": "Kinetic analysis, captured Human Notch4-NRR Fc fusion protein, humanized antibody injected",
  "assay_type": "binding",
  "conditions": "Table 30, Human Notch4-NRR Fc fusion",
  "description": "Kinetic analysis of further anti-Notch4 inhibitory humanized antibodies was carried out as follows. Human Notch4-NRR domain Fc fusion proteins were expressed with a CHO cell line. The antigen in the culture supernatant was captured by the anti-human Notch4 antibody fixed on a CM5 sensor chip that recognizes different epitopes of human Notch4. The humanized anti-human Notch4 antibody was then injected onto the sensor chip at various concentrations. The interaction and disassociation constants thereof were calculated according to manufacturer's instructions.\nIn the table below, e.g. the description “HK2L3 (Lys-)” means that the heavy chain variable region of the humanized anti-human Notch4 antibody employed in the experiment is the heavy chain variable region of the humanized anti-human Notch4 antibody heavy chain HK2 in Example 1, light chain variable region is the light chain variable region of the humanized anti-human Notch4 antibody light chain L3 in Example 1, and lysine (Lys) located at the C-terminal of the heavy chain of a common human antibody is deleted in this antibody. Those without the description “(Lys-)” mean that Lys located at the C-terminal of the heavy chain of the human antibody is not deleted.",
  "data": [
    {"molecule": "Antibody D: humanized anti-human Notch4 antibody, heavy chain variable region HK3, light chain variable region L5, C-terminal Lys deleted (antibody) heavy: EVQLVESGGGLVQPGGSLRLSCAASGFTFSSYGMSWVRQAPGKGLELVATINSNGGRTYYPDSVKGRFTISRDNSKNTLYLQMGSLKAEDMAVYYCARDQGFAYWGQGTLVTVSSASTKGPSVFPLAPCSRSTSESTAALGCLVKDYFPEPVTVSWNSGALTSGVHTFPAVLQSSGLYSLSSVVTVPSSNFGTQTYTCNVDHKPSNTKVDKTVERKCCVECPPCPAPPAAAPSVFLFPPKPKDTLMISRTPEVTCVVVDVSHEDPEVQFNWYVDGVEVHNAKTKPREEQFNSTFRVVSVLTVVHQDWLNGKEYKCKVSNKGLPAPIEKTISKTKGQPREPQVYTLPPSREEMTKNQVSLTCLVKGFYPSDIAVEWESNGQPENNYKTTPPMLDSDGSFFLYSKLTVDKSRWQQGNVFSCSVMHEALHNHYTQKSLSLSPG light: DIQMTQSPSSLSASVGDRVTITCKASQDVGTAVAWYQQKPGKSPKLLIYWASTRHTGVPSRFSGSGSGTDFTLTISSLQPEDVATYFCQQYSSYPWTFGQGTKVEIKRTVAAPSVFIFPPSDEQLKSGTASVVCLLNNFYPREAKVQWKVDNALQSGNSQESVTEQDSKDSTYSLSSTLTLSKADYEKHKVYACEVTHQGLSSPVTKSFNRGEC", "values": [
      {"measurement": "Rmax1 (RU)", "result": 37, "unit": "RU"},
      {"measurement": "ka", "result": "1.82e+06", "unit": "M⁻¹ s⁻¹"},
      {"measurement": "kd", "result": 0.000863, "unit": "s⁻¹"}
    ]}
  ]
}
